Biological target: p75 neurotrophin receptor (p75^NTR) on rat embryonic (E15) spinal cord motor neurons (rat) (UniProt P07174)
Test: cell-based or functional assay

p75 neurotrophin receptor (p75^NTR) on rat embryonic (E15) spinal cord motor neurons (rat), sequence (P07174 30-425): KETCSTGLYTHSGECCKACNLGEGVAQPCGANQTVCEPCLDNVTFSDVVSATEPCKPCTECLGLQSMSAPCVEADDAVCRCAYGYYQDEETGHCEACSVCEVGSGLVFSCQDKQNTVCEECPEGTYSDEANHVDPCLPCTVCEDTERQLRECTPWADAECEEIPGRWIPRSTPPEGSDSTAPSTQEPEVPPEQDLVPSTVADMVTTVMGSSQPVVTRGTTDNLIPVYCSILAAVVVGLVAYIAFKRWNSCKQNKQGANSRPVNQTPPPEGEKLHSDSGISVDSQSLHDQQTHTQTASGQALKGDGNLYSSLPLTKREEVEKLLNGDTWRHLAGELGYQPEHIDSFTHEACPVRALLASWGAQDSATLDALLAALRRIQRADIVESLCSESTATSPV

## mouse NGF (2.5S), purified, from Harlan (from UniProt P01139 122-241) (ligand)
  share of motor neurons vulnerable to NGF in culture: 40%

Source: patent publication US20060275290A1
